Laboratory results: patent US10040829B2

Assays:
[1] = biological target: hASCT1 receptor (human) (UniProt P43007); test: in vivo binding in SCID mice grafted with XChASCT1 cells; anti-RGS His and anti-mouse FITC, IF reading
[2] = biological target: hASCT2 receptor (type 2 sodium-dependant neutral amino acid receptor-transporter) (human) (UniProt Q15758); test: in vivo binding in SCID mice grafted with XChASCT2 cells; anti-RGS His and anti-mouse FITC, IF reading

## soluble HERV-W Env protein of Example 7 (293T cells transfected with the plasmid 460, envelope-spacer-His6)
[1]
  NF/NT, Mean (fluorescent cells out of 77 cells): 24
[2]
  NF/NT, Mean (fluorescent cells out of 57 cells): 23
